Consider four substances from patent publication US20200024330A1.

Assay in all cases: cell-based or functional assay
The target of test [1] is HIV-1 Env of pseudovirus 6535.3 (Acute), clade B (HIV-1).
Test [2] deals with HIV-1 MGRM-C-019 Env (HIV-1).
In test [3] the target is HIV-1 92RW008 envelope glycoprotein (Env) (HIV-1).
Test [4] concerns the target HIV-1 Env of isolate MGRM-D-019 (clade D) (HIV-1).
In test [5] the target is HIV-1 93UG077 envelope glycoprotein (Env) (HIV-1).
In test [6] the target is HIV-1 MGRM-C-009 Env (HIV-1).
In test [7] the target is HIV-1 MGRM-F1-004 Env (pseudovirus) (HIV-1).
The target of test [8] is HIV-1 92BR020 envelope protein (Env) on pseudovirus (HIV-1).
The target in test [9] is HIV-1 92UG005 envelope glycoprotein (Env) on pseudovirus (HIV-1).
The target in test [10] is HIV-1 92RW021 envelope glycoprotein (Env) on pseudovirus (HIV-1).
Test [11] deals with HIV-1 MGRM-C-008 Env (HIV-1).
Test [12] addresses HIV-1 Env of isolate MGRM-D-012 (clade D) (HIV-1).
Test [13] deals with HIV-1 93MW959 envelope glycoprotein (Env) on pseudovirus (HIV-1).
In test [14] the target is HIV-1 MGRM-A-008 envelope glycoprotein (Env) (HIV-1).

Sequence of 1443_C16 (PG16) (TCN-116) (antibody) (VH): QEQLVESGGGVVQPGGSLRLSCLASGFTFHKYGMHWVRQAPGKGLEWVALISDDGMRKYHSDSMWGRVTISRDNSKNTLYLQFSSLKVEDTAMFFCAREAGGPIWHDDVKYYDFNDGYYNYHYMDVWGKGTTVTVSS
Sequence of 1443_C16 (PG16) (TCN-116) (antibody) (VL): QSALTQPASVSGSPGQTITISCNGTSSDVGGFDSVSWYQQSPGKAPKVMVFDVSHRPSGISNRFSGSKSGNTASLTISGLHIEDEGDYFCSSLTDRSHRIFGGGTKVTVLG

Take 2G12 (antibody): the IC50 (µg/ml), pseudovirus neutralization in [1] is 3.85 µg/mL; in [3] it was 22.5 µg/mL; in test [4], greater than 50 µg/mL; in test [5], greater than 50 µg/mL; in test [7], greater than 50 µg/mL; in [10] it was greater than 50 µg/mL. For the same substance, the IC50 (µg/ml), pseudovirus neutralization in test [12], in test [13] and in test [14] was greater than 50 µg/mL each time. Besides, the IC50 in test [2], in [6] and in [11] was greater than 50 µg/mL each time. The substance further came in with a neutralization IC50 in test [8] of 2.26 µg/mL. In addition, the IC90 (pseudovirus neutralization) in test [9] is greater than 50 µg/mL.

Regarding 4E10 (antibody), the IC50 (µg/ml), pseudovirus neutralization in test [1] was 1.23 µg/mL; in [3] it was 14.5 µg/mL; in [4], 0.04 µg/mL; in test [5], 10.6 µg/mL; in test [7], 2.74 µg/mL; in [10] it was 4.87 µg/mL. The IC50 (µg/ml), pseudovirus neutralization in test [12] amounted to 1.13 µg/mL; in test [13], 4.55 µg/mL; in [14], 7.59 µg/mL. The results for the IC50 in test [2], in test [6] and in test [11] were 3.49 µg/mL, 0.56 µg/mL and 2.97 µg/mL, respectively. In test [8], this substance showed a neutralization IC50 of 41.4 µg/mL. The IC90 (pseudovirus neutralization) in test [9] is greater than 50 µg/mL.

For 1443_C16 (PG16) (TCN-116) (antibody), the IC50 (µg/ml), pseudovirus neutralization in [1] was 36.9 µg/mL; in [3], 0.002 µg/mL; in test [4] it was 0.01 µg/mL; in test [5] it was greater than 50 µg/mL; in test [7] it was 0.43 µg/mL; in [10] it was 0.11 µg/mL. Further, the IC50 (µg/ml), pseudovirus neutralization is 0.35 µg/mL in [12], 0.007 µg/mL in test [13] and greater than 50 µg/mL in test [14]. The values for the IC50 in test [2], in [6] and in test [11] were 0.002 µg/mL, greater than 50 µg/mL and greater than 50 µg/mL, respectively. The same substance displayed a neutralization IC50 in test [8] greater than 50 µg/mL. Also, the IC90 (pseudovirus neutralization) in test [9] was greater than 50 µg/mL.

Take b12 (antibody): the IC50 (µg/ml), pseudovirus neutralization in [1] is 1.93 µg/mL; in test [3], 9.46 µg/mL; in [4], greater than 50 µg/mL; in [5], 47 µg/mL; in [7], greater than 50 µg/mL; in [10], greater than 50 µg/mL. Further, the IC50 (µg/ml), pseudovirus neutralization in [12] is 0.13 µg/mL; in test [13] it was greater than 50 µg/mL; in [14] it was greater than 50 µg/mL. Besides, the figures for the IC50 in [2], in test [6] and in test [11] were greater than 50 µg/mL, greater than 50 µg/mL and 1.51 µg/mL, respectively. In addition, the neutralization IC50 in test [8] amounted to 27.5 µg/mL. The substance further came in with an IC90 (pseudovirus neutralization) in test [9] greater than 50 µg/mL.

A word on the IC50: it is the midpoint of a concentration-inhibition curve.
